Measured values published in patent publication US20170355733A1.
Where a chain is given by its changes, count along the chain named. In names and notes the source's numbering stands. Values belong to the binder of their own block, whether it stands above or below them.

How the values were obtained:
[1] = biological target: aTNF-Fab (Fab fragment of anti-human TNFα monoclonal IgG, generic name Infliximab, product name Remicade); experiment: affinity chromatography on aTNF-Fab-immobilized column, linear pH gradient 5.5 to 2.5, pH at elution peak top
[2] = biological target: aTNF-Fab (Fab fragment of anti-human TNFα monoclonal IgG, generic name Infliximab, product name Remicade); experiment: SPR Biacore 3000, aTNF-Fab amine-coupled on CM5, peptide flowed, 25 °C, pH 7.4, 1:1 fit
[3] = biological target: aTNF-Fab (Fab fragment of anti-human TNFα monoclonal IgG, generic name Infliximab, product name Remicade); experiment: affinity constant KA for aTNF-Fab, summing up Table 2 (method not shown in the excerpt)

B1: GB1#-Cont.1d (designed binder)
chain: GPLGSTTYKLILNGKTLTGYTTAIAADAATAEIVLKQFANDNGIDGEWTYDDATKTFTVTE
Dissociation pH [1]: 2.6 pH
Ka [2]: 2.45e+06 M⁻¹
koff [2]: 0.017 s⁻¹
kon [2]: 41700 M⁻¹ s⁻¹

B3: GB1#-D36V.1d (designed binder)
chain: B1 chain with D41V
Dissociation pH [1]: 3.4 pH
Ka [3]: > 500000 M⁻¹
Ka [2]: 510000 M⁻¹
koff [2]: 0.064 s⁻¹
kon [2]: 32800 M⁻¹ s⁻¹

Further lines, results first:

Dissociation pH [1]: 2.85 pH
Ka [3]: > 500000 M⁻¹
Ka [2]: 880000 M⁻¹
koff [2]: 0.0285 s⁻¹
kon [2]: 25000 M⁻¹ s⁻¹
B2: GB1#-T17A.1d (designed binder)
chain: B1 chain with T22A

Dissociation pH [1]: 3 pH
Ka [3]: > 500000 M⁻¹
Ka [2]: 570000 M⁻¹
koff [2]: 0.0335 s⁻¹
kon [2]: 19100 M⁻¹ s⁻¹
B4: GB1#-T17V.1d (designed binder)
chain: B1 chain with T22V
